Laboratory results reported in US6861508B2, “Transcriptional intermediary factor-2” (Institut National de la Sante et de la Recherche Medicale, priority 1996, dated 2005).

Legend:
ER, RARα and RXRα LBDs = assay: GST pull-down of TIF2 polypeptides with NR LBDs; format: binding; conditions: in vitro, with or without 10^−6 M ligand
Summary of the method: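 In vitro GST-fusion pull-downs tested TIF2 deletion or point-mutant polypeptides against ER or RARα LBDs. Point-mutant binding was quantified relative to a TIF2.1 wildtype standard. Values are means of at least three experiments with SD.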

GAL-CBP = assay: two hybrid analysis of CBP-TIF2 interaction in HeLa cells; format: cell-based
Procedure: (e) Two hybrid analysis of the CBP-TIF2 interaction in mammalian cells in vivo. HeLa cells were transfected with 0.2 μg of the GAL4 or GALA-CBP (expressing CBP residues 1872 to 2165) expression vectors together with 0.2 μg of the VP16 or VPI6-TF2 expression vectors in the presence of 2 μg of (17m)5-TATA-CAT reporter plasmid. Fold induction relative to the GAL-CBP activity is indicated. The mean of three experiments is shown; in each case, values varied by less than ±20%.
HeLa cells were transfected with 0.2 μg of GAL4 or GAL-CBP expression vectors together with 0.2 μg of VP16 or VP16-TIF2.13 expression vectors in the presence of 1 μg of (17m)5-TATA-CAT reporter plasmid. Data are represented as fold induction of the activity seen with GAL-CBP alone. The mean and standard, deviation obtained from ten experiments are shown. The expression levels were confirmed by Western blotting with antibodies directed against GAL4 DBD and VP16 AAD (data not shown).
Furthermore, it was reported that SRC-1, which belongs to the same gene family as TIF2, interacts with CBP and p300 (Kamei, Y. et al., Cell 85:403-414 (1996); Yao, T. P. et al., Proc. Natl. Acad. Sci. USA 93:10626-10631 (1996); Hanstein, B., et al., Proc. Natl. Acad Sci USA 93:11540-11545 (1996)). Using GST-fusion protein-based interaction and animal cell-based two hybrid assays, we therefore analyzed whether TIF2 could also interact with CBP. […] A GST-CBP fusion protein was expressed in E. coli and used for puU-down assays with in vitro translated TIF2 polypeptides (FIG. 7d).

B1: TIF2.2 (TIF2 amino acids 1288-1464) (other)
chain: NPRIPQANAQQFPFPPNYGISQQPDPGFTGATTPQSPLMSPRMAHTQSPMMQQSQANPAYQAPSDINGWAQGNMGGNSMFSQQSPPHFGQQANTSMYSNNMNINVSMATNTGGMSSMNQMTGQISMTSVTSVSTSGLSSMGPEQVNDPALRGGNLFPNQLPGMDMIKQEGDTTRKYC
notes: In-vitro-translated; also called AD2
In the case of B1, the “binding to NRs (ER, RARα LBDs)” value (ER, RARα and RXRα LBDs) is reported as “cannot bind NRs” and the “interaction with GAL-CBP, two hybrid” value (GAL-CBP) is reported as “not”.
